{"source": "patent US10239925B2", "about": "“Peptides and combination of peptides for use in immunotherapy against ovarian cancer and other cancers” (IMMATICS BIOTECHNOLOGIES GMBH, priority 2015, dated 2019)", "target": "HLA-A*02:01 (Homo sapiens, UniProt P04439, D140Y/D185E/D98H/E176V/E277Q/G131W/G231S/I119V/I121R/I166T/I218V/L300P/L318F/N151K/N90K/P208A/P217A/Q86G/Q94H/R138H/R169H/T345S)", "assay": "MHC binding assay (UV-ligand exchange, anti-β2m ELISA, peptide exchange yield)", "details": "binding to HLA-A*02:01", "how_it_was_run": "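Peptide-MHC complexes formed by UV-ligand exchange, cleaving a UV-sensitive placeholder peptide in favour of the test peptide. Exchange yield measured by ELISA: monomers diluted 100-fold onto streptavidin-coated plates, 1 h 37 °C, detected with 2 ug/ml HRP anti-β2m and TMB, absorbance at 450 nm.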", "data": [{"substance": "589 (KLYPQLPAEI; listed as Homo sapiens) [compound 589]", "values": [{"measurement": "Peptide exchange (MHC class I binding score, peptide exchange yield)", "result": "“+++” (>50 = +++)"}]}, {"substance": "123 (NLWDLTDASVV; listed as Homo sapiens) [compound 123]", "values": [{"measurement": "Peptide exchange (MHC class I binding score, peptide exchange yield)", "result": "“+++” (>50 = +++)"}]}, {"substance": "573 (ILVANAIVGV; listed as Homo sapiens) [compound 573]", "values": [{"measurement": "Peptide exchange (MHC class I binding score, peptide exchange yield)", "result": "“+++” (>50 = +++)"}]}, {"substance": "394 (LLAVIGGLVYL; listed as Homo sapiens) [compound 394]", "values": [{"measurement": "Peptide exchange (MHC class I binding score, peptide exchange yield)", "result": "“+++” (>50 = +++)"}]}, {"substance": "383 (ALLELENSVTL; listed as Homo sapiens) [compound 383]", "values": [{"measurement": "Peptide exchange (MHC class I binding score, peptide exchange yield)", "result": "“+++” (>50 = +++)"}]}, {"substance": "321 (GLFEDVTQPGILL; listed as Homo sapiens) [compound 321]", "values": [{"measurement": "Peptide exchange (MHC class I binding score, peptide exchange yield)", "result": "“++++” (>75% = ++++)"}]}, {"substance": "525 (VLLEAGEGLVTI; listed as Homo sapiens) [compound 525]", "values": [{"measurement": "Peptide exchange (MHC class I binding score, peptide exchange yield)", "result": "“+++” (>50 = +++)"}]}, {"substance": "279 (ALWGGTQPLL; listed as Homo sapiens) [compound 279]", "values": [{"measurement": "Peptide exchange (MHC class I binding score, peptide exchange yield)", "result": "“++” (>20% = ++)"}]}, {"substance": "281 (ILRESTEEL; listed as Homo sapiens) [compound 281]", "values": [{"measurement": "Peptide exchange (MHC class I binding score, peptide exchange yield)", "result": "“+++” (>50 = +++)"}]}, {"substance": "579 (NLMEMVAQL; listed as Homo sapiens) [compound 579]", "values": [{"measurement": "Peptide exchange (MHC class I binding score, peptide exchange yield)", "result": "“++” (>20% = ++)"}]}, {"substance": "43 (VLSSLEINI; listed as Homo sapiens) [compound 43]", "values": [{"measurement": "Peptide exchange (MHC class I binding score, peptide exchange yield)", "result": "“++” (>20% = ++)"}]}, {"substance": "266 (KITDTLIHL; listed as Homo sapiens) [compound 266]", "values": [{"measurement": "Peptide exchange (MHC class I binding score, peptide exchange yield)", "result": "“+++” (>50 = +++)"}]}, {"substance": "332 (YLISELEAA; listed as Homo sapiens) [compound 332]", "values": [{"measurement": "Peptide exchange (MHC class I binding score, peptide exchange yield)", "result": "“+++” (>50 = +++)"}]}, {"substance": "211 (LLWPGAALL; listed as Homo sapiens) [compound 211]", "values": [{"measurement": "Peptide exchange (MHC class I binding score, peptide exchange yield)", "result": "“++” (>20% = ++)"}]}, {"substance": "373 (SLLEDKGLAEV; listed as Homo sapiens) [compound 373]", "values": [{"measurement": "Peptide exchange (MHC class I binding score, peptide exchange yield)", "result": "“++” (>20% = ++)"}]}, {"substance": "4 (GIMEHITKI; listed as Homo sapiens) [compound 4]", "values": [{"measurement": "Peptide exchange (MHC class I binding score, peptide exchange yield)", "result": "“++++” (>75% = ++++)"}]}, {"substance": "196 (YLYSVEIKL; listed as Homo sapiens) [compound 196]", "values": [{"measurement": "Peptide exchange (MHC class I binding score, peptide exchange yield)", "result": "“++++” (>75% = ++++)"}]}, {"substance": "168 (KILDADIQL; listed as Homo sapiens) [compound 168]", "values": [{"measurement": "Peptide exchange (MHC class I binding score, peptide exchange yield)", "result": "“++++” (>75% = ++++)"}]}, {"substance": "16 (VLFQGQASL; listed as Homo sapiens) [compound 16]", "values": [{"measurement": "Peptide exchange (MHC class I binding score, peptide exchange yield)", "result": "“+++” (>50 = +++)"}]}, {"substance": "95 (SVIPQIQKV; listed as Homo sapiens) [compound 95]", "values": [{"measurement": "Peptide exchange (MHC class I binding score, peptide exchange yield)", "result": "“+++” (>50 = +++)"}]}, {"substance": "127 (KIGDEPPKV; listed as Homo sapiens) [compound 127]", "values": [{"measurement": "Peptide exchange (MHC class I binding score, peptide exchange yield)", "result": "“++” (>20% = ++)"}]}, {"substance": "307 (ALPVSLPQI; listed as Homo sapiens) [compound 307]", "values": [{"measurement": "Peptide exchange (MHC class I binding score, peptide exchange yield)", "result": "“+++” (>50 = +++)"}]}, {"substance": "285 (QLLHVGVTV; listed as Homo sapiens) [compound 285]", "values": [{"measurement": "Peptide exchange (MHC class I binding score, peptide exchange yield)", "result": "“+++” (>50 = +++)"}]}, {"substance": "622 (RLLGEEVVRVLQA; listed as Homo sapiens) [compound 622]", "values": [{"measurement": "Peptide exchange (MHC class I binding score, peptide exchange yield)", "result": "“+++” (>50 = +++)"}]}, {"substance": "312 (IISDLTIAL; listed as Homo sapiens) [compound 312]", "values": [{"measurement": "Peptide exchange (MHC class I binding score, peptide exchange yield)", "result": "“+++” (>50 = +++)"}]}, {"substance": "485 (NVPDSFNEV; listed as Homo sapiens) [compound 485]", "values": [{"measurement": "Peptide exchange (MHC class I binding score, peptide exchange yield)", "result": "“+++” (>50 = +++)"}]}, {"substance": "380 (TLIEDEIATI; listed as Homo sapiens) [compound 380]", "values": [{"measurement": "Peptide exchange (MHC class I binding score, peptide exchange yield)", "result": "“++” (>20% = ++)"}]}, {"substance": "163 (ALDEMGDLLQL; listed as Homo sapiens) [compound 163]", "values": [{"measurement": "Peptide exchange (MHC class I binding score, peptide exchange yield)", "result": "“+++” (>50 = +++)"}]}, {"substance": "126 (VLAYFLPEA; listed as Homo sapiens) [compound 126]", "values": [{"measurement": "Peptide exchange (MHC class I binding score, peptide exchange yield)", "result": "“++++” (>75% = ++++)"}]}, {"substance": "278 (QLLDVVLTI; listed as Homo sapiens) [compound 278]", "values": [{"measurement": "Peptide exchange (MHC class I binding score, peptide exchange yield)", "result": "“++” (>20% = ++)"}]}, {"substance": "392 (ALLHPQGFEV; listed as Homo sapiens) [compound 392]", "values": [{"measurement": "Peptide exchange (MHC class I binding score, peptide exchange yield)", "result": "“++” (>20% = ++)"}]}, {"substance": "66 (FLDENIGGVAV; listed as Homo sapiens) [compound 66]", "values": [{"measurement": "Peptide exchange (MHC class I binding score, peptide exchange yield)", "result": "“+++” (>50 = +++)"}]}, {"substance": "139 (SVMEVNSGIYRV; listed as Homo sapiens) [compound 139]", "values": [{"measurement": "Peptide exchange (MHC class I binding score, peptide exchange yield)", "result": "“+++” (>50 = +++)"}]}, {"substance": "1 (SLMEPPAVLLL; listed as Homo sapiens) [compound 1]", "values": [{"measurement": "Peptide exchange (MHC class I binding score, peptide exchange yield)", "result": "“+++” (>50 = +++)"}]}, {"substance": "276 (ALFTFSPLTV; listed as Homo sapiens) [compound 276]", "values": [{"measurement": "Peptide exchange (MHC class I binding score, peptide exchange yield)", "result": "“+++” (>50 = +++)"}]}, {"substance": "41 (SLMPHIPGL; listed as Homo sapiens) [compound 41]", "values": [{"measurement": "Peptide exchange (MHC class I binding score, peptide exchange yield)", "result": "“+++” (>50 = +++)"}]}, {"substance": "335 (YSLSSVVTV; listed as Homo sapiens) [compound 335]", "values": [{"measurement": "Peptide exchange (MHC class I binding score, peptide exchange yield)", "result": "“+++” (>50 = +++)"}]}, {"substance": "128 (YLFDDPLSAV; listed as Homo sapiens) [compound 128]", "values": [{"measurement": "Peptide exchange (MHC class I binding score, peptide exchange yield)", "result": "“++” (>20% = ++)"}]}, {"substance": "616 (VLIDEVESL; listed as Homo sapiens) [compound 616]", "values": [{"measurement": "Peptide exchange (MHC class I binding score, peptide exchange yield)", "result": "“+++” (>50 = +++)"}]}, {"substance": "490 (FLLQHVQEL; listed as Homo sapiens) [compound 490]", "values": [{"measurement": "Peptide exchange (MHC class I binding score, peptide exchange yield)", "result": "“+++” (>50 = +++)"}]}, {"substance": "352 (SLLELLHIYV; listed as Homo sapiens) [compound 352]", "values": [{"measurement": "Peptide exchange (MHC class I binding score, peptide exchange yield)", "result": "“+++” (>50 = +++)"}]}, {"substance": "153 (FLIANVLYL; listed as Homo sapiens) [compound 153]", "values": [{"measurement": "Peptide exchange (MHC class I binding score, peptide exchange yield)", "result": "“+” (>10% = +)"}]}, {"substance": "231 (FLSPQQPPLLL; listed as Homo sapiens) [compound 231]", "values": [{"measurement": "Peptide exchange (MHC class I binding score, peptide exchange yield)", "result": "“++” (>20% = ++)"}]}, {"substance": "28 (QLLDETSAITL; listed as Homo sapiens) [compound 28]", "values": [{"measurement": "Peptide exchange (MHC class I binding score, peptide exchange yield)", "result": "“+++” (>50 = +++)"}]}, {"substance": "165 (SLLDEIRAV; listed as Homo sapiens) [compound 165]", "values": [{"measurement": "Peptide exchange (MHC class I binding score, peptide exchange yield)", "result": "“+++” (>50 = +++)"}]}, {"substance": "80 (FLYDNLVESL; listed as Homo sapiens) [compound 80]", "values": [{"measurement": "Peptide exchange (MHC class I binding score, peptide exchange yield)", "result": "“++” (>20% = ++)"}]}, {"substance": "596 (ALLDQTKTLAESAL; listed as Homo sapiens) [compound 596]", "values": [{"measurement": "Peptide exchange (MHC class I binding score, peptide exchange yield)", "result": "“+++” (>50 = +++)"}]}, {"substance": "447 (QLVPALAKV; listed as Homo sapiens) [compound 447]", "values": [{"measurement": "Peptide exchange (MHC class I binding score, peptide exchange yield)", "result": "“++” (>20% = ++)"}]}, {"substance": "115 (AIAGAGILYGV; listed as Homo sapiens) [compound 115]", "values": [{"measurement": "Peptide exchange (MHC class I binding score, peptide exchange yield)", "result": "“++” (>20% = ++)"}]}, {"substance": "331 (KVDTVWVNV; listed as Homo sapiens) [compound 331]", "values": [{"measurement": "Peptide exchange (MHC class I binding score, peptide exchange yield)", "result": "“+++” (>50 = +++)"}]}]}
